Data: PMC3792970, “A Single Nucleotide Polymorphism Associated with Hepatitis C Virus Infections Located in the Distal Region of the IL28B Promoter Influences NF-κB-Mediated Gene Transcription”

What was measured:
NF-kB p50 [1] = target: T1, NF-kB p50 (UniProt P19838 42-367); assay: EMSA; 2 ug p50; diffuse shift; EMSA: 1X BB stated as 50 mM Tris pH 8.0, 250 mM KCl, 2.5 mM EDTA, 0.5% Triton X-100, 62.5% glycerol, 1 mM DTT; 1 ug poly(dI:dC), 10 ul, room temperature 30 min, 4% native PAGE at 4 C; pull-down: 1X BB, poly(dI:dC), RT 2 h; settings: protein: recombinant; chain copies: 2; label: 5'-32P on forward strand (EMSA); biotin (pull-down); blunt
NF-kB p50 [2] = target: T1, NF-kB p50; assay: EMSA; 2 ug p50; distinct bands; EMSA: 1X BB stated as 50 mM Tris pH 8.0, 250 mM KCl, 2.5 mM EDTA, 0.5% Triton X-100, 62.5% glycerol, 1 mM DTT; 1 ug poly(dI:dC), 10 ul, room temperature 30 min, 4% native PAGE at 4 C; pull-down: 1X BB, poly(dI:dC), RT 2 h; settings: protein: recombinant; chain copies: 2; label: 5'-32P on forward strand (EMSA); biotin (pull-down); blunt

T1 sequence (P19838 42-367): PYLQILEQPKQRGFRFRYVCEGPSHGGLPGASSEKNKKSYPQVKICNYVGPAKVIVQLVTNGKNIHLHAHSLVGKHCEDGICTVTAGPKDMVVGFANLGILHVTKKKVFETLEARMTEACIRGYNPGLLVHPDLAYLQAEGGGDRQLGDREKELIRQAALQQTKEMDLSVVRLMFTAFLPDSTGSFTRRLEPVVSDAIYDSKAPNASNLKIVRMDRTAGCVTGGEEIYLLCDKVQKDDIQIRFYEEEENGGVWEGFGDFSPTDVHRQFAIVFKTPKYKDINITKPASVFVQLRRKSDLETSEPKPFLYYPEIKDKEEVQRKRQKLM

| Binder | binding result (NF-kB p50 [1]) | binding result (NF-kB p50 [2]) |
| --- | --- | --- |
| G-T (NF813G-T) (dsDNA) DNA 1: CCCCTGCCCTCAGTGGGCAGCCTCTGCATTCCCTCAGCTCCCTTTCTCTCTGTGA DNA 2: TCACAGAGAGAAAGGGAGCTGAGGGAATGCAGAGGCTGCCCACTGAGGGCAGGGG | binds | – |
| C-C (NFC-C849) (dsDNA) DNA 1: CCCCTGCCCTCAGTGGGCAGCCTCTCCATCCCCTCAGCTCCCTTTCTCTCTGTGA DNA 2: TCACAGAGAGAAAGGGAGCTGAGGGGATGGAGAGGCTGCCCACTGAGGGCAGGGG | – | binds |
